We go through four proteins from article PMC11555649, “Yop1 stability and membrane curvature generation propensity are controlled by its oligomerisation interface” (Biochemical Journal, 2024).

For orientation: stoichiometry N means a count of units in the complex or per binding partner.

Series [1] concerns the molecule itself. Kind of series: SEC-MALS; self-association; 100 µl at 1-1.4 mg/ml on Superdex 200 10/300GL; 20 mM HEPES pH 7.5, 150 mM NaCl, 5% glycerol; protein in DDM micelles, protein and detergent masses separated. Background: SEC sorts molecules by how far they enter the pores of the column.
Series [2] deals with the molecule itself. Kind of series: native gel or EMSA; Blue native PAGE, NativePAGE 4-16% Bis-Tris gel, ~0.8 mg/ml protein in DDM micelles, 150 V, 4°C; self-association. For orientation: Mobility shift assays separate free from complexed probe on a gel.

Where a chain is given by its changes, count along the chain named. In names and notes the source's numbering stands.

B1: Yop1 (wildtype, full length, Saccharomyces cerevisiae) (natural protein, UniProt Q12402 1-180, looked up)
chain: MSEYASSIHSQMKQFDTKYSGNRILQQLENKTNLPKSYLVAGLGFAYLLLIFINVGGVGEILSNFAGFVLPAYLSLVALKTPTSTDDTQLLTYWIVFSFLSVIEFWSKAILYLIPFYWFLKTVFLIYIALPQTGGARMIYQKIVAPLTDRYILRDVSKTEKDEIRASVNEASKATGASVH
notes: Yop1, Saccharomyces cerevisiae, UniProt Q12402, full length gene in pCold I; Integral membrane protein, kept in DDM detergent micelles; tags removed with TEV protease; also called WT; wildtype Yop1; source: E. coli C43, purified (Strep-Tactin, TEV cleavage, His-tag resin flow-through, SEC) in DDM; not shown: (His)9, N-terminal, cleaved; Twin-Strep-tag, N-terminal, cleaved
B1: in series [1], the “stoichiometry N” value is 2.

B2: Yop1 P71L variant (natural protein, Saccharomyces cerevisiae, UniProt Q12402 1-180, looked up)
chain: B1 chain with P71L
notes: Yop1, Saccharomyces cerevisiae, UniProt Q12402, full length gene in pCold I, with P71L; Homologous to the REEP1 SPG31 mutation P19L; prone to aggregation in preparative SEC; source: E. coli C43, purified (Strep-Tactin, TEV cleavage, His-tag resin flow-through, SEC) in DDM; not shown: (His)9, N-terminal, cleaved; Twin-Strep-tag, N-terminal, cleaved
Turning to B2, the “stoichiometry N” value in series [2] turned out to be 2.

B3: Yop1 A72E variant (natural protein, Saccharomyces cerevisiae, UniProt Q12402 1-180, looked up)
chain: B1 chain with A72E
notes: Yop1, Saccharomyces cerevisiae, UniProt Q12402, full length gene in pCold I, with A72E; Homologous to the REEP1 SPG31 mutation A20E; source: E. coli C43, purified (Strep-Tactin, TEV cleavage, His-tag resin flow-through, SEC) in DDM; not shown: (His)9, N-terminal, cleaved; Twin-Strep-tag, N-terminal, cleaved
Take B3: in series [1], the “stoichiometry N” value stood at 2.

B4: Yop1 S75F variant (natural protein, Saccharomyces cerevisiae, UniProt Q12402 1-180, looked up)
chain: B1 chain with S75F
notes: Yop1, Saccharomyces cerevisiae, UniProt Q12402, full length gene in pCold I, with S75F; Homologous to the REEP1 SPG31 mutation S23F; source: E. coli C43, purified (Strep-Tactin, TEV cleavage, His-tag resin flow-through, SEC) in DDM; not shown: (His)9, N-terminal, cleaved; Twin-Strep-tag, N-terminal, cleaved
For B4, the “stoichiometry N” value in series [2] stood at 2.
